The results in this text go back to US20200339678A1 (RIGEL PHARMACEUTICALS, published 2020).

For experiment [1], the target named is T1, His-tagged recombinant Human TIGIT (human, UniProt Q495A1 22-141).
T1 construct: Coated on the plate at 0.5 µg/mL in the direct ELISA; also called hTIGIT; not shown: His tag
T1 sequence (looked up): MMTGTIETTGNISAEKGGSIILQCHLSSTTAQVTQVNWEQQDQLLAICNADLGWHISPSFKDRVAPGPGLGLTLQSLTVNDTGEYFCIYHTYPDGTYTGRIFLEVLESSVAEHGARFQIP
Put plainly: ELISA. How it is done: (§1) Binding affinities for antigen binding to anti-TIGIT monoclonal antibodies were determined by ELISA. […] Antibodies to be tested were diluted to 1 μM in PBS buffer containing 1% BSA and diluted 3-fold in a 10-point curve. […] Detection of the secondary antibody was determined using streptavidin-HRP and TMB reagent. All assays were performed at room temperature. Curve-fitting software was used to determine the EC₅₀ for each antibody.

Experiment [2] has as its target T2, His-tagged recombinant Mouse TIGIT (mouse, UniProt P86176 29-148, limits assumed).
T2 construct: Coated on the plate at 0.5 µg/mL in the direct ELISA; not shown: His tag
T2 sequence (looked up): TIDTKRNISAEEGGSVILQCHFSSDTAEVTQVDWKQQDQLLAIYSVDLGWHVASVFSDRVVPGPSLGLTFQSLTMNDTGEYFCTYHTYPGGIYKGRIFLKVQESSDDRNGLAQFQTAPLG
Kind of experiment: ELISA. How it is done: as §1
For orientation: ELISA stands for enzyme-linked immunosorbent assay.

The target of experiment [3] is T3, human TIGIT expressed in YTS cells, fused to a portion of beta galactosidase (human, UniProt Q495A1 22-244).
T3 sequence (looked up): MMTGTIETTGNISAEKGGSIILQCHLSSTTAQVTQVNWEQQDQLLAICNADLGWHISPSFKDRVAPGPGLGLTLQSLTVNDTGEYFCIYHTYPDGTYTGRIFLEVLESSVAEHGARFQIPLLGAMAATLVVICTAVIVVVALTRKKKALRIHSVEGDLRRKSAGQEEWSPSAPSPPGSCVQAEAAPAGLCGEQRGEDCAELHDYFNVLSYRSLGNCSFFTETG
Kind of experiment: cell-based or functional assay.

Experiment [4] deals with T4, biotinylated human TIGIT extra cellular domain (human, UniProt Q495A1 22-141, biotinylated using the EZ-Link NHS-PEG4-biotin kit).
T4 construct: extracellular domain; also called human TIGIT-ECD
T4 sequence (looked up): T1 sequence (looked up)
Put plainly: competitive ELISA vs coated PVR. How it is done: (§2) Antibodies were serially diluted in a 10-point curve starting at 1 μM in 3-fold steps. […] Units are in microM.

For another experiment, the target named is T5, mouse TIGIT-Fc (mouse, UniProt P86176 29-148).
T5 construct: extracellular domain; also called mouse TIGIT-ECD; not shown: Fc
T5 sequence (looked up): T2 sequence (looked up)
Kind of experiment: competitive ELISA vs coated PVR. How it is done: as §2

As usually defined, the EC50 is the concentration that produces a half-maximal response. In general, IC50 refers to the point on the concentration scale where inhibition reaches its midpoint.

B1: Ab143 (Fab, V domains shown)
VH: EVQLLESGGGLVQPGGSLRLSCAASGFTFSSYSMHWVRQAPGKGLEWVAAINSNAGSSSYADSVKGRFTISRDNSKNTLYLQMNSLRAEDTAVYYCARVPYGVWMDYWGQGTLVTVSS
VL: not shown
notes: ARV
As for B1, the EC50 in experiment [1] was 3.4 nM. For the same molecule, in experiment [2], the EC50 was 5.7 nM. In addition, in experiment [3], the “YTS_hTIGI/hGrbs_EFC_Agonism (EC50)” value was above 1000 nM, the “YTS_hTIGI/hGrbs_EFC_Antagonism (IC50)” value was determined as 60.2 nM and the “YTS_hTIGIT/hTIGIT_EFC (EC50)” value is 4.7 nM. This molecule displayed an IC50 in experiment [4] of 20.3 nM. In the experiment with mouse TIGIT-Fc, this molecule returned an IC50 of 22 nM.
